Experiment [1] addresses T1, Cor1, subunit of complex III (S. cerevisiae, UniProt P07256 27-457).
T1 sequence: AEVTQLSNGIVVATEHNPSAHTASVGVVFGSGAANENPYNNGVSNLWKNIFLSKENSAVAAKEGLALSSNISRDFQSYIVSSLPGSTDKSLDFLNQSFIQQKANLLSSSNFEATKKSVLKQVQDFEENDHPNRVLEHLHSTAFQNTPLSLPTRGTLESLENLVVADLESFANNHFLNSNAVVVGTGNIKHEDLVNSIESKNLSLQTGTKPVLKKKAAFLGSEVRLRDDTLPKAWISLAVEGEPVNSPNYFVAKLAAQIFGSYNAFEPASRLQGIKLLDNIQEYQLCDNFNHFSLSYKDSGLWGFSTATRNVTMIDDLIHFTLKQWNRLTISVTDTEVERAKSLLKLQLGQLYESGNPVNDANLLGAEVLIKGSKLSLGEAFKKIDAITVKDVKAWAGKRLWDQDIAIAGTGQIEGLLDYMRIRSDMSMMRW
The experiment can be described thus: cryo-EM structure.

In experiment [2] the target is wild-type (untethered) III2IV2 respiratory supercomplex with Cox4-Flag (S. cerevisiae) (UniProt P07256). Briefly: co-IP.

B1: Cox5a, subunit of complex IV (natural protein)
chain: AQTHALSNAAVMDLQSRWENMPSTEQQDIVSKLSERQKLPWAQLTEPEKQAVWYISYGEWGPRRPVLNKGDSSFIAKGVAAGLLFSVGLFAVVRMAGGQDAKTMNKEWQLKSDEYLKSKNANPWGGYSQVQSK
Regarding B1, the binding result in experiment [1] is “binds”.

B2: Nde1, external mitochondrial NADH dehydrogenase (enzyme)
chain: EDKKVILQKVAPTTGVVAKQSFFKRTGKFTLKALLYSALAGTAYVSYSLYREANPSTQVPQSDTFPNGSKRKTLVILGSGWGSVSLLKNLDTTLYNVVVVSPRNYFLFTPLLPSTPVGTIELKSIVEPVRTIARRSHGEVHYYEAEAYDVDPENKTIKVKSSAKNNDYDLDLKYDYLVVGVGAQPNTFGTPGVYEYSSFLKEISDAQEIRLKIMSSIEKAASLSPKDPERARLLSFVVVGGGPTGVEFAAELRDYVDQDLRKWMPELSKEIKVTLVEALPNILNMFDKYLVDYAQDLFKEEKIDLRLKTMVKKVDATTITAKTGDGDIENIPYGVLVWATGNAPREVSKNLMTKLEEQDSRRGLLIDNKLQLLGAKGSIFAIGDCTFHPGLFPTAQVAHQEGEYLAQYFKKAYKIDQLNWKMTHAKDDSEVARLKNQIVKTQSQIEDFKYNHKGALAYIGSDKAIADLAVGEAKYRLAGSFTFLFWKSAYLAMCLSFRNRVLVAMDWAKVYFLGRDSSI
Molecule B2 came in with a fold decrease of co-purified Nde1 (normalised to purified SC) against III2IV1 SC in experiment [2] of 2 fold.

Values taken from doi:10.1101/2024.12.19.629262 (bioRxiv, 2024).
